The values below come from patent US20220073611A1.

This test has as its target NR1 ATD fusion protein on 293T-ATD cells (human). Put plainly: flow cytometry on 293T-ATD cells, co-stained with commercial anti-NR1 mAb.

Sequence of NR1 ATD fusion protein on 293T-ATD cells (human) (chain, as listed by the source limits assumed): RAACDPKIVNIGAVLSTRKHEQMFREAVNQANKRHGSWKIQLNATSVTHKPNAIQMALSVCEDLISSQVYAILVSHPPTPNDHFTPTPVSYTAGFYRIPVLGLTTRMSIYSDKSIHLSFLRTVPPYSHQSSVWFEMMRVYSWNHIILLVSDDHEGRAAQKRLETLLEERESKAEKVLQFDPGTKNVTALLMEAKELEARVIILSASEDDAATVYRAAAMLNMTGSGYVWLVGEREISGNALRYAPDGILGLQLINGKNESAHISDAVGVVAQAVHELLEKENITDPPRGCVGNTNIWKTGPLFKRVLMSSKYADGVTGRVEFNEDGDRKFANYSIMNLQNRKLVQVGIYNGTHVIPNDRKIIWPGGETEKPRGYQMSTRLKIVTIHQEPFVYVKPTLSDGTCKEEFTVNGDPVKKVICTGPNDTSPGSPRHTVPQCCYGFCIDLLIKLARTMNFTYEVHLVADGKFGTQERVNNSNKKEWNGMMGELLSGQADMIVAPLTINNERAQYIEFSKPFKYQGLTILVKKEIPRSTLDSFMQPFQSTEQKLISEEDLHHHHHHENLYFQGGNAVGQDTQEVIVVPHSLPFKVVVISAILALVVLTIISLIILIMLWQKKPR

6A isotype control human mAb (antibody) registered a Percent GluN1 positive 293T-ATD cells bound of 18% and a double positive cells of 12.4%.
